Data published in the Immune Epitope Database (IEDB).

Legend:
HLA-B*44:02 = assay: IEDB peptide-MHC binding, purified MHC/competitive/radioactivity; filed as Kd, often an IC50 or EC50 that approximates it; ≥ and ≤ were set here for values at or beyond the usual limits of such assays
HLA-A*26:01 [1] = assay: as above
HLA-B*53:01 = assay: as above
HLA-B*40:01 = assay: as above
HLA-B*40:02 = assay: as above
HLA-B*45:01 = assay: as above
HLA-B*44:03 = assay: as above
HLA-B*18:01 = assay: as above
HLA-B*51:01 = assay: as above
HLA-B*35:01 = assay: as above
HLA-A*26:01 [2] = assay: IEDB peptide-MHC binding, purified MHC/competitive/fluorescence; filed as Kd, often an IC50 or EC50 that approximates it; ≥ and ≤ were set here for values at or beyond the usual limits of such assays
HLA-B*15:01 [3] = assay: as above; details: source organism: Bacillus anthracis str. A0488
HLA-A*23:01 = assay: IEDB peptide-MHC binding, purified MHC/competitive/radioactivity; filed as Kd, often an IC50 or EC50 that approximates it; ≥ and ≤ were set here for values at or beyond the usual limits of such assays
HLA-A*26:01 [4] = assay: IEDB peptide-MHC binding, purified MHC/direct/fluorescence; filed as Kd, often an IC50 or EC50 that approximates it; ≥ and ≤ were set here for values at or beyond the usual limits of such assays
HLA-B*15:01 [5] = assay: as above; details: source organism: SARS-CoV1
HLA-A*11:01 = assay: as above; details: source organism: SARS-CoV1
HLA-A*01:01 = assay: as above; details: source organism: SARS-CoV1
HLA-B*08:01 = assay: as above; details: source organism: SARS-CoV1
HLA-B*58:01 = assay: as above; details: source organism: SARS-CoV1
HLA-A*02:01 = assay: as above; details: source organism: SARS-CoV1
HLA-A*31:01 = assay: as above; details: source organism: SARS-CoV1
HLA-A*03:01 = assay: as above; details: source organism: SARS-CoV1
HLA-A*29:02 = assay: IEDB peptide-MHC binding, purified MHC/competitive/radioactivity; filed as Kd, often an IC50 or EC50 that approximates it; ≥ and ≤ were set here for values at or beyond the usual limits of such assays; details: source organism: SARS coronavirus Tor2
HLA-A*24:02 = assay: as above; details: source organism: SARS coronavirus Tor2
HLA-A*30:02 = assay: as above; details: source organism: SARS coronavirus Tor2
HLA-A*32:01 = assay: as above; details: source organism: Dengue virus 4 Philippines/H241/1956
[6] = source organism: Dengue virus 3 Martinique/1243/1999
[7] = source organism: Lymphocytic choriomeningitis virus (strain Armstrong)
[8] = source organism: Mammarenavirus machupoense
[9] = source organism: Dengue virus 4 Philippines/H241/1956
[10] = source organism: SARS coronavirus Tor2
[11] = source organism: Mammarenavirus guanaritoense
[12] = source organism: Dengue virus 2 Jamaica/1409/1983
[13] = source organism: Mammarenavirus juninense
[14] = source organism: Mammarenavirus brazilense
[15] = source organism: Mammarenavirus lassaense

## YTALFSGVSW
HLA-B*44:02; [6]
  Kd: 2070 nM
HLA-A*26:01 [1]; [6]
  Kd: 916 nM
HLA-B*53:01; [6]
  Kd: 18.2 nM

## SEISVILQEL
HLA-B*40:01; [7]
  Kd: 868 nM
HLA-B*44:02; [7]
  Kd: 106 nM
HLA-B*40:02; [7]
  Kd: 544 nM
HLA-B*45:01; [7]
  Kd: 4170 nM
HLA-B*44:03; [7]
  Kd: 240 nM
HLA-B*18:01; [7]
  Kd: 10300 nM

## EELSLMYEAL
HLA-B*40:01; [8]
  Kd: 15400 nM
HLA-B*44:02; [8]
  Kd: 1790 nM
HLA-B*40:02; [8]
  Kd: 205 nM
HLA-B*45:01; [8]
  Kd: 1590 nM
HLA-B*44:03; [8]
  Kd: 2000 nM
HLA-B*18:01; [8]
  Kd: 1810 nM

## LPEDIEQMAN
HLA-B*51:01; [6]
  Kd: ≥ 69600 nM
HLA-B*35:01; [6]
  Kd: 883 nM
HLA-B*53:01; [6]
  Kd: 2100 nM

## LPESLETLM
HLA-B*51:01; [9]
  Kd: 2450 nM
HLA-B*35:01; [9]
  Kd: 470 nM
HLA-B*53:01; [9]
  Kd: 557 nM

## DELGNILSTY
HLA-B*40:01; [8]
  Kd: ≥ 69500 nM
HLA-B*44:02; [8]
  Kd: 1860 nM
HLA-B*40:02; [8]
  Kd: 5380 nM
HLA-B*45:01; [8]
  Kd: ≥ 70000 nM
HLA-B*44:03; [8]
  Kd: 361 nM
HLA-B*18:01; [8]
  Kd: 8.62 nM

## EEAALCTFL
HLA-B*40:01; [10]
  Kd: 172 nM
HLA-B*44:02; [10]
  Kd: 452 nM
HLA-B*40:02; [10]
  Kd: 840 nM
HLA-B*45:01; [10]
  Kd: 37.8 nM
HLA-B*44:03; [10]
  Kd: 168 nM
HLA-B*18:01; [10]
  Kd: 11800 nM

## ETIVLLRAF
HLA-A*26:01 [2]; source organism: Influenza A virus (A/Wellington/22/2001(H3N2))
  Kd: 27.6 nM

## RLMATKNIY
HLA-B*15:01 [3]
  Kd: 136 nM

## MALKDFKEF
HLA-A*23:01; [9]
  Kd: 154 nM
HLA-B*35:01; [9]
  Kd: 77 nM
HLA-B*53:01; [9]
  Kd: 139 nM

## SEDGLDGFDW
HLA-B*40:01; [11]
  Kd: 14600 nM
HLA-B*44:02; [11]
  Kd: 21.3 nM
HLA-B*40:02; [11]
  Kd: 14400 nM
HLA-B*45:01; [11]
  Kd: ≥ 56700 nM
HLA-B*44:03; [11]
  Kd: 21.2 nM
HLA-B*18:01; [11]
  Kd: ≥ 35300 nM

## MVSIQWHAM
HLA-A*26:01 [4]; source organism: Giardia lamblia ATCC 50803
  Kd: 3760 nM

## MPSMKRFRRE
HLA-B*51:01; [12]
  Kd: ≥ 69600 nM
HLA-B*35:01; [12]
  Kd: ≥ 30900 nM
HLA-B*53:01; [12]
  Kd: ≥ 20600 nM

## FMGRIRSVY
HLA-B*15:01 [5]
  Kd: 393 nM
HLA-A*11:01
  Kd: 18200 nM
HLA-A*01:01
  Kd: 5870 nM
HLA-B*08:01
  Kd: 604 nM
HLA-B*58:01
  Kd: 6000 nM
HLA-A*02:01
  Kd: 9160 nM
HLA-A*31:01
  Kd: 123 nM
HLA-A*03:01
  Kd: 2340 nM
HLA-A*29:02
  Kd: 1.7 nM
HLA-A*24:02
  Kd: ≥ 55900 nM
HLA-A*23:01; [10]
  Kd: ≥ 77800 nM
HLA-A*26:01 [1]; [10]
  Kd: 2240 nM
HLA-A*30:02
  Kd: 0.157 nM

## LVIDNLYGF
HLA-A*26:01 [4]; source organism: Mycobacterium tuberculosis
  Kd: 12.2 nM

## VEAVMYMGTL
HLA-B*40:01; [10]
  Kd: 22.2 nM
HLA-B*44:02; [10]
  Kd: 1540 nM
HLA-B*40:02; [10]
  Kd: 33.8 nM
HLA-B*45:01; [10]
  Kd: 508 nM
HLA-B*44:03; [10]
  Kd: 516 nM
HLA-B*18:01; [10]
  Kd: 7240 nM

## HDLPLLCNL
HLA-B*40:01; [13]
  Kd: ≥ 38100 nM
HLA-B*44:02; [13]
  Kd: 1490 nM
HLA-B*40:02; [13]
  Kd: 15.2 nM
HLA-B*45:01; [13]
  Kd: ≥ 77700 nM
HLA-B*44:03; [13]
  Kd: 4110 nM
HLA-B*18:01; [13]
  Kd: 12200 nM

## DLYRMYSRY
HLA-A*26:01 [2]; source organism: Actinobacillus pleuropneumoniae serovar 1 str. 4074
  Kd: 301 nM

## EEPVSLLPLS
HLA-B*40:01; [8]
  Kd: 7390 nM
HLA-B*44:02; [8]
  Kd: 5710 nM
HLA-B*40:02; [8]
  Kd: 6150 nM
HLA-B*45:01; [8]
  Kd: 565 nM
HLA-B*44:03; [8]
  Kd: 1870 nM
HLA-B*18:01; [8]
  Kd: ≥ 38400 nM

## MPLVMAWRTI
HLA-B*51:01; [9]
  Kd: 61.9 nM
HLA-B*35:01; [9]
  Kd: 705 nM
HLA-B*53:01; [9]
  Kd: 10.8 nM
HLA-A*32:01
  Kd: 136 nM

## PELKKPITW
HLA-B*40:01; [14]
  Kd: ≥ 76100 nM
HLA-B*44:02; [14]
  Kd: ≥ 42800 nM
HLA-B*40:02; [14]
  Kd: ≥ 37100 nM
HLA-B*45:01; [14]
  Kd: ≥ 77700 nM
HLA-B*44:03; [14]
  Kd: 14100 nM
HLA-B*18:01; [14]
  Kd: ≥ 77500 nM

## ADNLITEML
HLA-B*40:01; [15]
  Kd: ≥ 27800 nM
HLA-B*44:02; [15]
  Kd: 6200 nM
HLA-B*40:02; [15]
  Kd: 415 nM
HLA-B*45:01; [15]
  Kd: ≥ 77700 nM
HLA-B*44:03; [15]
  Kd: 12300 nM
HLA-B*18:01; [15]
  Kd: ≥ 36300 nM
